This assay concerns the target Recombinant 1-158 a.a. domain of TMCC3 protein (human) (UniProt Q9ULS5). As to the kind of experiment: Luminex immunosandwich assay; cell-free; protein coupled onto Luminex beads, incubated with various concentrations of recombinant AKT, washed, detected with fluorescence labeled anti-AKT antibody (MFI, n = 4).
Chain of UniProt Q9ULS5 (Q9ULS5 1-158): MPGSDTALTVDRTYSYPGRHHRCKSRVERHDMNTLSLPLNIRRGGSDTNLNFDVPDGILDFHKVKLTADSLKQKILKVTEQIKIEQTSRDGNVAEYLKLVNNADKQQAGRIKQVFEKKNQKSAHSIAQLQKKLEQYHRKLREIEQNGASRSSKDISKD

Turning to “recombinant AKT (from UniProt P31749 1-480) (natural protein)”, the Kd came to 1.67 nM.

In general, Kd refers to the equilibrium constant for the complex coming apart.

(Values after paper PMC8062265.)
